From the nanobody polyreactivity screen of Harvey et al. (2022) come the findings set out here.

A short description of the series: yeast display, Sf9 membrane polyspecificity reagent, FACS + sequencing; frameworks hold sequencing errors. The method, boiled down:
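Synthetic nanobody libraries on Saccharomyces cerevisiae BJ5465 were galactose-induced for 36–48 hours, stained 1 hour at 4 °C with 10% biotinylated, detergent-solubilized Sf9 membrane reagent and enriched on streptavidin microbeads. FACS then separated cells into low and high (top ~1%) gates by anti-HA (expression) and streptavidin (reagent binding) fluorescence. Genes were colony-PCR amplified, MiSeq 2 × 250 sequenced and CDR-length filtered. A clone's polyreactivity label is that of its gate of origin.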
Turning to “QVQLVESGGGLVQAGGSLRLSCAASGRIFSYNAMGWYRQEPGKERELVASITSGGGRTYYADSVKGRFTISRDYAKNTVYLQMNSLKPVDTAVYYCAADGEVKYDYWGQGTQVTVSS”, the “polyreactivity (PSR sort gate)” value is “low polyreactivity”. As for “QVQLVESGGGLVQAGGSLRLSCAASGRIFSYNDMGWYRQAPGKERELVAAISWNSGRTYYADSVKGRFTISRDNAKNTVYLQMNSLKPEDTAVYYCNAPYWKSRFRAYYHWGQGTQVTVSS”, the “polyreactivity (PSR sort gate)” value is listed as “high polyreactivity”. As for “QVQLVESGGGLVQAGGSLRLSCAASGRIFSYYAMGWYRQAPGKERELVAAISNGGNTYYADSVKGRFTISRDNAKNTVYLQMNSLKPEDTAVYYCYVRRYDYWGQGTQVTVSS”, the “polyreactivity (PSR sort gate)” value is “high polyreactivity”. For “QVQLVESGGGLVQAGGSLRLSCAASGRIFSYYAMGWYRQAPGKERELVAAITSAGGTNYADSVKGRFTISRDNAKNTVYLQMNSLNPEDTAVYYCAAAKRDFVEYDYWGQGTQVTVSS”, the “polyreactivity (PSR sort gate)” value is recorded as “low polyreactivity”. “QVQLVESGGGLVQAGGSLRLSCAASGRIFSYYAMGWYRQAPGKERELVAVISRRGDNTYYADSVKGRFTISRDNAKNTVYLQMNSLKPEDTAVYYCAVQFVFIFYYGYDYWGQGTQVTVSS”: the “polyreactivity (PSR sort gate)” value is on record as “high polyreactivity”. As to “QVQLVESGGGLVQAGGSLRLSCAASGRIFSYYDIGWYRQAPGKERELVAAITGGGRTIYADSVKGRFTISRDNAKNTVYLQMNILKTEDTAVYYCNARARSRKFYYWGQGTQVTVSS”, the “polyreactivity (PSR sort gate)” value was “high polyreactivity”. Take “QVQLVESGGGLVQAGGSLRLSCAASGRIFTANAMGCYIQAPGKERELVAAISWRGGSTYYADSVKGRFTISRDNAKNTVYLQMNSLKPEDTAVYYCNKVGATWRQWFGYWGQGTQVTVSS”: the “polyreactivity (PSR sort gate)” value is recorded as “high polyreactivity”. On to “QVQLVESGGGLVQAGGSLRLSCAASGRIFTGNAMGWYRQAPGKERELVAAISRRGTRTYYADSVKGRFTISRDNAKNTVYLQMNSLKPEDTAVYYCATRPGYWRYEYWGQGTQVTVSS”, for which the “polyreactivity (PSR sort gate)” value is listed as “high polyreactivity”. With “QVQLVESGGGLVQAGGSLRLSCAASGRIFTGNVMRWYRQAPGKERELVAAISYGGGSTNYSDSVKGRFTISRDNAKNTVYLQMNSLKQEDTAVYYCAACIKRYLSYYTRYGYWGQGTQVTVSS” the entry was “high polyreactivity”; with “QVQLVESGGGLVQAGGSLRLSCAASGRIFTGYAMGWYRQAPGKERELVAAINWSGGSTYYADSVKGRFTISRDNAKNTVYLQMNSLKPADTAVYYCNAGYVFSGSYYKYDYWGQGTQVTVSS”, “high polyreactivity”.

“QVQLVESGGGLVQAGGSLRLSCAASGRIFTGYTMGWYRQAPGKERELVAGITGSSGSTYYADSVKGRFTISRDNAKNTVYLQMNSLKPEDTAVYYCAAGRRYRSVGYGYWGQGTQVTVSS”: the “polyreactivity (PSR sort gate)” value is given as “high polyreactivity”. With “QVQLVESGGGLVQAGGSLRLSCAASGRIFTHNAMGWYRQAPGKERELVAAITSGGRTTYADSVKGRFTFSRDNAKNTVYLQMIRLKPEDTAVYYCNADTGLGSLDFDNRDYWGQGTQVTVSS” the entry was “low polyreactivity”; with “QVQLVESGGGLVQAGGSLRLSCAASGRIFTHNAMGWYRQAPGKERELVAAITSGGRTTYADSVKGRFTISRDNAKNTVYFQMNSLKPEDTAVYYCNADTGLGSLDFDKRDYWGQGTQVTVSS”, “low polyreactivity”; with “QVQLVESGGGLVQAGGSLRLSCAASGRIFTINAMGWYRQAPGKERELVAAITGSAASTYYADSVKGRFTISRDNAKNTVYLQMNSLKPEDTAVYYCAAGYRRIPYEYWGQATQVTVSS”, “high polyreactivity”.

As for “QVQLVESGGGLVQAGGSLRLSCAASGRIFTIYAMGWYRQAPGKERELVAAISDRGTRTYYADSVKGRFTISRDNAKNTVYLQMNSLKPEDTAVYYCATDALYTYGYDYWGQGTQVTVSS”, the “polyreactivity (PSR sort gate)” value is reported as “low polyreactivity”. For the sequence “QVQLVESGGGLVQAGGSLRLSCAASGRIFTIYAMGWYRQAPGKERELVATISRRGGSTYYADSVKGRFTISRDNSKNTVYLQMNSLKPEDTAVYYCAAESVITWWAYDYWGQGTQVTVSS”, the “polyreactivity (PSR sort gate)” value is “high polyreactivity”. As for “QVQLVESGGGLVQAGGSLRLSCAASGRIFTIYVMGWYRPAPGKERELVATITYSSGSTSYADSVKGRFTISRDNAKNTVYLQMNSLKPEDTAVYYCATDIHSVHNNRDKHDYDYWGQGTQVSVSS”, the “polyreactivity (PSR sort gate)” value is “low polyreactivity”.

Consider “QVQLVESGGGLVQAGGSLRLSCAASGRIFTKNTMGWYRQAPGKERELVAAIRSRAGSTYYADSVKGRFTISRDNAKNTVYLQMNSLKPEDTAVYYCAVPWFRSVDFDYWGQGTQVTVSS”, for which the “polyreactivity (PSR sort gate)” value was “low polyreactivity”. The same measure for “QVQLVESGGGLVQAGGSLRLSCAASGRIFTKYPMGRYRQATGKERELVAAITSGGRTYYADSVKGRFTISRDNAKNTVYLQMNSLKPEDTAVYFCAARYVQVVRKFGFRGQGTQVTVSS”: “high polyreactivity”. Regarding “QVQLVESGGGLVQAGGSLRLSCAASGRIFTLYDMGWYRQAPGKERELVAAISNSAGSTYYADSVKGRFTISRDNAKNTVYLQMNSLKPEDTAVYYCAAELWSWWGSRDYWGQGTQVTVSS”, the “polyreactivity (PSR sort gate)” value is listed as “high polyreactivity”. Regarding “QVQLVESGGGLVQAGGSLRLSCAASGRIFTNNAMGWYRQAPGKERELVAAISKRGGSTYYADSVKGRFTISRDNAKNTVYLQMNSLKPEDTAVYYCNAREYIHWRGALGLFGSWGQGTQVTVSS”, the “polyreactivity (PSR sort gate)” value is “high polyreactivity”. As for “QVQLVESGGGLVQAGGSLRLSCAASGRIFTNNAMGWYRQAPGKERELVAAISRSGGRTYYADSVKGRFTISRDNAKNTVYLQMNSLKPEDTAVYYCAAVHLYYGYNSPFTMDYWGQGTQVTVSS”, the “polyreactivity (PSR sort gate)” value is on record as “high polyreactivity”. In the case of “QVQLVESGGGLVQAGGSLRLSCAASGRIFTNNAMGWYRQEPGKERELVAAISRSGGRTYYADSVKGRFTISRDIAKNTVYLQMNSLKPEDTAVYYCAAVHLFYGYNSPFTMDYWGQGTQVTVSS”, the “polyreactivity (PSR sort gate)” value is reported as “high polyreactivity”.

In the case of “QVQLVESGGGLVQAGGSLRLSCAASGRIFTNYAMGWYRQAPGKERELVATINGGGITNYADSVKVRFTISRDNAKNTVYLQMNSLKPEDNAVYYCATDRLSYGYKPGYTFYYWEQGTQVTVSS”, the “polyreactivity (PSR sort gate)” value was “high polyreactivity”. As to “QVQLVESGGGLVQAGGSLRLSCAASGRIFTPYAMGWYRKAPGKERELGAVIRDGSTYYADSVKGRFTISRDNAKNTVYLQMNRLKPEDTAVYYCAAVNYYDQYGDYYWGQGTQVTVSS”, the “polyreactivity (PSR sort gate)” value was “low polyreactivity”. The same measure for “QVQLVESGGGLVQAGGSLRLSCAASGRIFTQYAMGWYRQAPGKERELVAAISYGGGTTHYADSVKGRFTISRDNAKNTVYLQMNSLKPEDTAVYYCAADGGRQVYTQLYDYWGQGTQVTVSS”: “low polyreactivity”; for “QVQLVESGGGLVQAGGSLRLSCAASGRIFTRNAMGWYRQAPGKEREFVAAISYRGGSTYYADSVKGRFTISRDYAKNTVYLQMNSLKPEDTAVYYCAAEPYIQWVYYGGNGRRYGYWGQGTQVTVSS”: “high polyreactivity”; for “QVQLVESGGGLVQAGGSLRLSCAASGRIFTRNAMGWYRQAPGKERELVAAITSGGSTNYADSVKGRFTISRDNAKNTVYLQMNSLKPEDTAVYYCNAVYYPYRIWGRVRPSYGYWGQGTQVTVSS”: “high polyreactivity”. Consider “QVQLVESGGGLVQAGGSLRLSCAASGRIFTRNTMGWYRQAPGKERELVAAITSRGGSTYYADSVKGRFTISRDNAKITVYLQMNSLKPEETAVYYCAADIPRYYYYWGQGTQVTVSS”, for which the “polyreactivity (PSR sort gate)” value is listed as “high polyreactivity”. Regarding “QVQLVESGGGLVQAGGSLRLSCAASGRIFTRYAMGWYRQAPGKERELVAAINYRGSSTYYADSVKGRFTISRDNAKNTVYLQMNSLKPEDTAVYYCNTYGQTDTYWRYYYWGQGTQVTVSS”, the “polyreactivity (PSR sort gate)” value is “high polyreactivity”. For “QVQLVESGGGLVQAGGSLRLSCAASGRIFTRYAMGWYRQAPGKERELVAAITGSGGSTYYADSVKGRFTISRDNAKNTVYLQMNSLKPEDTAVYYCNKVTGRNADRYGYWGQGTQVTVSS”, the “polyreactivity (PSR sort gate)” value was “high polyreactivity”.

As to “QVQLVESGGGLVQAGGSLRLSCAASGRIFTRYAMGWYRQAPWKERELVAVITRSGGSTYYADSVKGRFTISRDNAKNTVYFKMNSLIPEDTAVYYCAVRPYELHRLADQPGGDDYWGQGTQVTVSS”, the “polyreactivity (PSR sort gate)” value was “low polyreactivity”. Regarding “QVQLVESGGGLVQAGGSLRLSCAASGRIFTSNTMGWYRQAPGKERELVAAITWRVGSTYYADSVKGRFTISRDNAKNTVYLQMNSLKPEDTAVYYCNAVVLHVTTDNSTFTTDDYWGQGTQVTVSS”, the “polyreactivity (PSR sort gate)” value is recorded as “low polyreactivity”.

Consider “QVQLVESGGGLVQAGGSLRLSCAASGRIFTSYAMGWYRQAPGKERELVAAINRGGSTYYADSVKGRFTISRDNAKNTVYLQMNSLKPEDTAVYYCAAGTRSRAPYYRTIVDTYGYWGQGTQVTVSS”, for which the “polyreactivity (PSR sort gate)” value was “low polyreactivity”.

“QVQLVESGGGLVQAGGSLRLSCAASGRIFTSYAMGWYRQAPGKERELVAAISGSSASTYYADSVKGRFTISRDNAKNTVYLQMNSLKPEDTAVYYCAAYKYDYRVDTGYDYWGQGTQVTVSS”: the “polyreactivity (PSR sort gate)” value is on record as “low polyreactivity”. With “QVQLVESGGGLVQAGGSLRLSCAASGRIFTTYAMGWYRQAPGKERELVAAISRSGGSTYYADSVKGRFTISRDNAKNSVYLQMNSLKPEDTAVYYCAAVPTSNSFRSSFYYWGQGTQVTVSS” the entry was “high polyreactivity”; with “QVQLVESGGGLVQAGGSLRLSCAASGRIFTTYAMGWYRQAPGKERELVARISSGGTTYYADSVKGRFTISRDNAKNTVYLQMNSLKPEDTAVYYCNVRAVTPTRSRPFRYDYWGQGTQVTVSS”, “high polyreactivity”. With “QVQLVESGGGLVQAGGSLRLSCAASGRIFTWNAMGWYRQAPGKERDLVARISSGTRTNYADSVKGRFTISRDNAKNTVYLQMNSLKPEDTAVYYCAAQSRPPFVKQYWWQRDYWGQGTQVTVSS”, the “polyreactivity (PSR sort gate)” value is recorded as “high polyreactivity”. “QVQLVESGGGLVQAGGSLRLSCAASGRIFTWNAMGWYRQAPGKERELVATINRGGNTNYADSVKGRFTISRDNAKNTVYLQMNSLKPEDTAVYYCAARYHYSNLYRFAYGYWGQGTQVTVSS”: the “polyreactivity (PSR sort gate)” value is listed as “high polyreactivity”.

As for “QVQLVESGGGLVQAGGSLRLSCAASGRIFTYMGWYRQAPGKERELVAGISWRGTSTYYADSVKGRFTISRDNAKNTVYLQMNSLKPEDTAVYYCAAPWAYHVRGDYWGQGTQVTVSS”, the “polyreactivity (PSR sort gate)” value is recorded as “low polyreactivity”.
